Experimental data published in US20030049831A1 (published 2003).

Key:
[1] = target: T1, human C5b-6 complexes (human, UniProt P01031 752-1676; P01031 19-673; P13671 22-934); assay: ELISA, Factor H coated at 50 to 0.4 pmol/well, C5b-6 detected with anti-C6 K1.115
T1 construct: Complex of C5b and C6
Method: (§1) Binding of C3b, C5b-6 and HSA to recombinant FHR-5 (panel A) or Factor H (panel B) was determined by ELISA.
(§2) Recombinant FHR-5 or Factor H (Sigma) were serially diluted 1:2 in 0.1 M carbonate buffer, pH 9.3. Duplicate wells in microtitre plates were incubated with dilutions of FHR-5 or Factor H from 50 pmol/well to 0.4 pmol/well. The plates were blocked and wells incubated with human C3b, C5b-6 or HSA at 10 μg/well. C3b was detected by incubation with polyclonal rabbit anti-C3 antibody (1:1000 dilution) followed by peroxidase-conjugated swine anti-rabbit antibody (1:2000 dilution). C5b-6 and HSA were detected using K1.115 (anti-C6) and anti-HSA monoclonal antibodies, respectively, (1:500 dilution) followed by peroxidase-conjugated rabbit anti-mouse antibody (1:2000 dilution). The ELISAs were developed with O-phenylenediamine dihydrochloride. The reaction was stopped with 4M H₂SO₄ and the optical density of the solution was measured at a wavelength of 492 nm using a Behring EL31 microplate reader.

[2] = target: human C3b (human, UniProt P01024 749-1663; P01024 23-667); assay: ELISA, rFHR-5 coated at 50 to 0.4 pmol/well, C3b at 10 µg/well, detected with polyclonal anti-C3
human C3b, sequence (P01024 749-1663 limits assumed, chain 1 of 2): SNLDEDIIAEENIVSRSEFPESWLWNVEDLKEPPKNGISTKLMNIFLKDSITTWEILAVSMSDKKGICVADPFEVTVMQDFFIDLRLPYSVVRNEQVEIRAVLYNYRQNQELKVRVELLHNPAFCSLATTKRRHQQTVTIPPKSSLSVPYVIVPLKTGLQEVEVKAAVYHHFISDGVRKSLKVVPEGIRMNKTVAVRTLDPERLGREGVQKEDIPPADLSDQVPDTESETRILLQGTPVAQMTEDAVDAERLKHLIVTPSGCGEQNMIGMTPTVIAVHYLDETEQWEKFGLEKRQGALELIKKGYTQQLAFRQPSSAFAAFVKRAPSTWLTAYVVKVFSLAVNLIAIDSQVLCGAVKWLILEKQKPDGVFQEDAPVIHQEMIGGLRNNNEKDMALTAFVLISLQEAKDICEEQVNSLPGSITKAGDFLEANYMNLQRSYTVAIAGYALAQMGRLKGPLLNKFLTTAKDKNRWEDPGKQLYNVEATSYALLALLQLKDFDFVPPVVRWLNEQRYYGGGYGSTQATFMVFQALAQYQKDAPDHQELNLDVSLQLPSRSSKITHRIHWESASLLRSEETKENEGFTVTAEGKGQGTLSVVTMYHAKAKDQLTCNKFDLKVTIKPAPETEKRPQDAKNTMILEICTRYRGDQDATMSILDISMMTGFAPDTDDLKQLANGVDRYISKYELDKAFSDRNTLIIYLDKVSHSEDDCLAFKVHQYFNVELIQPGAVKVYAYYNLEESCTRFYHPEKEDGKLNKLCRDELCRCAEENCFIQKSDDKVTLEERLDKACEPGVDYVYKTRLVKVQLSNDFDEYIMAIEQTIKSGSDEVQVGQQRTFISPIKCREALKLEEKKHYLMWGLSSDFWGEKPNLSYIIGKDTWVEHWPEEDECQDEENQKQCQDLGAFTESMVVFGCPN
human C3b, sequence (P01024 23-667 limits assumed, chain 2 of 2): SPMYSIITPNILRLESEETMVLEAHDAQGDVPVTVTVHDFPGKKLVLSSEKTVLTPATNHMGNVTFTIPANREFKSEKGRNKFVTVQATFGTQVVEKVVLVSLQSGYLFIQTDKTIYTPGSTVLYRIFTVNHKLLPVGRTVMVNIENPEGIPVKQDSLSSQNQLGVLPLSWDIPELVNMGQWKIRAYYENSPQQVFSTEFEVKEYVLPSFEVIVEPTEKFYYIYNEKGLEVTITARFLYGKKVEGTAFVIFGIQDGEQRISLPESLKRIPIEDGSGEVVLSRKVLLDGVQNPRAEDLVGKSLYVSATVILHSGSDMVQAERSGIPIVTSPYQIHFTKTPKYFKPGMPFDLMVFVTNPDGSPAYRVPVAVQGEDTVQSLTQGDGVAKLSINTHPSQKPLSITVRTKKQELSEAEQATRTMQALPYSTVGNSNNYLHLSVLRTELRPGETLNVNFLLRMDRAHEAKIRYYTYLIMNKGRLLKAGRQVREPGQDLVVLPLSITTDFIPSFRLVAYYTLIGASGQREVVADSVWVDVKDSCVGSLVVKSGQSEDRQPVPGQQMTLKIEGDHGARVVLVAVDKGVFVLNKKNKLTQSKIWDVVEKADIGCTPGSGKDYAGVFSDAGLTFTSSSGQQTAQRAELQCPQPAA
Method: as §1, §2

[3] = target: T1, human C5b-6 complexes; assay: ELISA, rFHR-5 coated at 50 to 0.4 pmol/well, C5b-6 detected with anti-C6 K1.115
Method: as §1, §2

[4] = target: human serum albumin (HSA) (human, UniProt P02768 25-609); assay: ELISA, rFHR-5 coated at 50 to 0.4 pmol/well, HSA detected with anti-HSA monoclonal antibody
human serum albumin (HSA), sequence (P02768 25-609 limits assumed): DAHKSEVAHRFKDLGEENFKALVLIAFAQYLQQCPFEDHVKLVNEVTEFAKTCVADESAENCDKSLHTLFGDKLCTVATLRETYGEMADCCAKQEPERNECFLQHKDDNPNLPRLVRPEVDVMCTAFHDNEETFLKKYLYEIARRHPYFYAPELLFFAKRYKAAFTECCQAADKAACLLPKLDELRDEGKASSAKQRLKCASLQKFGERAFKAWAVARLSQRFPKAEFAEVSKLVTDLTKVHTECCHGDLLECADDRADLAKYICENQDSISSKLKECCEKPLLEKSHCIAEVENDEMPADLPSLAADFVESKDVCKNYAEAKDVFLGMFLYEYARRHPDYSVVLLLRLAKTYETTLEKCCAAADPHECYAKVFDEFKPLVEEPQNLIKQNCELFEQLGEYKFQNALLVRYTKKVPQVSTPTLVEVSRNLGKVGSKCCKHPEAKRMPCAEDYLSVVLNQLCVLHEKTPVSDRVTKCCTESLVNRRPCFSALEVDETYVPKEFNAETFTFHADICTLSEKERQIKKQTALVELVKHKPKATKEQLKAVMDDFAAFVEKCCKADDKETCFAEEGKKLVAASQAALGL
Method: as §1, §2

T1 sequence (P01031 752-1676 limits assumed, chain 1 of 3): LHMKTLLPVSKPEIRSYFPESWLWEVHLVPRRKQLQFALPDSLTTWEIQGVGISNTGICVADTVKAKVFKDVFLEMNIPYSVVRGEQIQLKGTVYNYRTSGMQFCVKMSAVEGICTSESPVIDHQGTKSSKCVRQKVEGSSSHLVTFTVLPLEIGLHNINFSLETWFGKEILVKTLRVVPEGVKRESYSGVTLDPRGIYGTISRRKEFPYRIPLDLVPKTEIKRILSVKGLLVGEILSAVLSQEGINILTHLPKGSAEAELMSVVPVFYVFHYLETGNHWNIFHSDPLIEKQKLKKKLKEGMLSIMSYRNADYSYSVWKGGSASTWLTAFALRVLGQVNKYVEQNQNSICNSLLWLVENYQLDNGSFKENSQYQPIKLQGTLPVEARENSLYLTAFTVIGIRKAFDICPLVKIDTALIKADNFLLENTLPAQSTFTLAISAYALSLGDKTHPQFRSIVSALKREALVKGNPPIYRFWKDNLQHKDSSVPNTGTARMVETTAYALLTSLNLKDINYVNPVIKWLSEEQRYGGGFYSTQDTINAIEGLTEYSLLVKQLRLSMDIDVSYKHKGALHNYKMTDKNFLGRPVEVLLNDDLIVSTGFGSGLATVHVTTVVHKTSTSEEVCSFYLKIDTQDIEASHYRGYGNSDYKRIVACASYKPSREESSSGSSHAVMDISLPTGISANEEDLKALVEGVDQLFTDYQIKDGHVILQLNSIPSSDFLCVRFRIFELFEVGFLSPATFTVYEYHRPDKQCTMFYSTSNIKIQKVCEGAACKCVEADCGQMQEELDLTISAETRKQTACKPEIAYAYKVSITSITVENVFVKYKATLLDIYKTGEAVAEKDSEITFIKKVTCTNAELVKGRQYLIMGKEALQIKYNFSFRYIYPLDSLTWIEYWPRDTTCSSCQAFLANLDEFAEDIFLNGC
T1 sequence (P01031 19-673 limits assumed, chain 2 of 3): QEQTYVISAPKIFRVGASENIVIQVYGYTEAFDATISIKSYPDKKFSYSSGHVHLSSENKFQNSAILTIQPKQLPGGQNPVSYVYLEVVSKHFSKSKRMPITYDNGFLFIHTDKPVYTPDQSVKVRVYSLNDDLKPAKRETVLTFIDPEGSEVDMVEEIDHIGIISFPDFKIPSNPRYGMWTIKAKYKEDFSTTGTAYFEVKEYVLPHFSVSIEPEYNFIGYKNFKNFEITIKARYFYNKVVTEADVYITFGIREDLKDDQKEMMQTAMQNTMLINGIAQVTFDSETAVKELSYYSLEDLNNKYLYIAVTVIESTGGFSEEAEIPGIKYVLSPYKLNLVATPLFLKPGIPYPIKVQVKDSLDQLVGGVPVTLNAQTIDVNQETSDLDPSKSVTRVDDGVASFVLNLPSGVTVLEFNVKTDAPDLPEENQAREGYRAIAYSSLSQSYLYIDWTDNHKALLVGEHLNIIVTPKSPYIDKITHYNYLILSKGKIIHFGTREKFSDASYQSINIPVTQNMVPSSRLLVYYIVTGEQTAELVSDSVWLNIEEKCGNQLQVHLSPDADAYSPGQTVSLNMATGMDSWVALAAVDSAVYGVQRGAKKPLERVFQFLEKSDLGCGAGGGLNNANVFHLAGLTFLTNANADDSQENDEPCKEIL
T1 sequence (P13671 22-934 limits assumed, chain 3 of 3): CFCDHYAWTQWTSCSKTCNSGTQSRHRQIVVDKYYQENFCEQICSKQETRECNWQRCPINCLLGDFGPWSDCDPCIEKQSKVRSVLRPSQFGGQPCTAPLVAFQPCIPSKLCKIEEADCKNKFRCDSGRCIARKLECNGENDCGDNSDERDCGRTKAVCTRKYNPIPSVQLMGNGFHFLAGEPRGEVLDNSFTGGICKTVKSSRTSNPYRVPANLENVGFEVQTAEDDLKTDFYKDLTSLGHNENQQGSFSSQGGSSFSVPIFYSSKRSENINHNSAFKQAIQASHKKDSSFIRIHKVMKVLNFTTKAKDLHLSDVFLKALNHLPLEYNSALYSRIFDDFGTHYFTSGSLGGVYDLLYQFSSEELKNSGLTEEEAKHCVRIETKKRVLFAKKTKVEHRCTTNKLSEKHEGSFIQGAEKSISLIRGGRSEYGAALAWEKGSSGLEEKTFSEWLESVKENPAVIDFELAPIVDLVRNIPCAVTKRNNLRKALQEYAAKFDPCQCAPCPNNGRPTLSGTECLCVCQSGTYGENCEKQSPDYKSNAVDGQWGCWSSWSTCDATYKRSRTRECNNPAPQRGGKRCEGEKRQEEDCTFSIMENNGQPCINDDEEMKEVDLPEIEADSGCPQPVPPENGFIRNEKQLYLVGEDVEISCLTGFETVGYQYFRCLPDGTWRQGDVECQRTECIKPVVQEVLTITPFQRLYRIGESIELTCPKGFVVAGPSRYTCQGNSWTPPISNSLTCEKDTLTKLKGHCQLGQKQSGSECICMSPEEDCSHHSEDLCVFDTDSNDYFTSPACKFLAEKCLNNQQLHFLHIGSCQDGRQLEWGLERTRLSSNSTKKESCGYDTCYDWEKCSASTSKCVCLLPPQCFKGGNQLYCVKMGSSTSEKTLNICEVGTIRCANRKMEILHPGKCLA

binding result [1] | binding result [2] | binding result [3] | binding result [4] | Binder
no binding (tested: 10 µg/well) |  |  |  | Factor H (Sigma) (other, UniProt P08603 19-1231, looked up, Bought protein; also called FH) EDCNELPPRRNTEILTGSWSDQTYPEGTQAIYKCRPGYRSLGNVIMVCRKGEWVALNPLRKCQKRPCGHPGDTPFGTFTLTGGNVFEYGVKAVYTCNEGYQLLGEINYRECDTDGWTNDIPICEVVKCLPVTAPENGKIVSSAMEPDREYHFGQAVRFVCNSGYKIEGDEEMHCSDDGFWSKEKPKCVEISCKSPDVINGSPISQKIIYKENERFQYKCNMGYEYSERGDAVCTESGWRPLPSCEEKSCDNPYIPNGDYSPLRIKHRTGDEITYQCRNGFYPATRGNTAKCTSTGWIPAPRCTLKPCDYPDIKHGGLYHENMRRPYFPVAVGKYYSYYCDEHFETPSGSYWDHIHCTQDGWSPAVPCLRKCYFPYLENGYNQNYGRKFVQGKSIDVACHPGYALPKAQTTVTCMENGWSPTPRCIRVKTCSKSSIDIENGFISESQYTYALKEKAKYQCKLGYVTADGETSGSITCGKDGWSAQPTCIKSCDIPVFMNARTKNDFTWFKLNDTLDYECHDGYESNTGSTTGSIVCGYNGWSDLPICYERECELPKIDVHLVPDRKKDQYKVGEVLKFSCKPGFTIVGPNSVQCYHFGLSPDLPICKEQVQSCGPPPELLNGNVKEKTKEEYGHSEVVEYYCNPRFLMKGPNKIQCVDGEWTTLPVCIVEESTCGDIPELEHGWAQLSSPPYYYGDSVEFNCSESFTMIGHRSITCIHGVWTQLPQCVAIDKLKKCKSSNLIILEEHLKNKKEFDHNSNIRYRCRGKEGWIHTVCINGRWDPEVNCSMAQIQLCPPPPQIPNSHNMTTTLNYRDGEKVSVLCQENYLIQEGEEITCKDGRWQSIPLCVEKIPCSQPPQIEHGTINSSRSSQESYAHGTKLSYTCEGGFRISEENETTCYMGKWSSPPQCEGLPCKSPPEISHGVVAHMSDSYQYGEEVTYKCFEGFGIDGPAIAKCLGEKWSHPPSCIKTDCLSLPSFENAIPMGEKKDVYKAGEQVTYTCATYYKMDGASNVTCINSRWTGRPTCRDTSCVNPPTVQNAYIVSRQMSKYPSGERVRYQCRSPYEMFGDEEVMCLNGNWTEPPQCKDSTGKCGPPPPIDNGDITSFPLSVYAPASSVEYQCQNLYQLEGNKRITCRNGQWSEPPKCLHPCVISREIMENYNIALRWTAKQKLYSRTGESVEFVCKRGYRLSSRSHTLRTTCWDGKLEYPTCAKR
 | binds | no binding (tested: 10 µg/well) | no binding (tested: 10 µg/well) | recombinant FHR-5 (rFHR-5), polyhistidine-tagged, expressed in insect cells (other, Insert amplified from immediately downstream of the signal peptide-encoding region to the end of the ORF (mature FHR-5, 551 amino acids); also called His-tagged recombinant protein; not shown: 10-histidine tag coded by vector pFASTBAC1-His10+ (after a gp67 signal peptide)) EGTLCDFPKIHHGFLYDEEDYNPFSQVPTGEVFYYSCEYNFVSPSKSFWTRITCTEEGWSPTPKCLRMCSFPFVKNGHSESSGLIHLEGDTVQIICNTGYSLQNNEKNISCVERGWSTPPICSFTKGECHVPILEANVDAQPKKESYKVGDVLKFSCRKNLIRVGSDSVQCYQFGWSPNFPTCKGQVRSCGPPPQLSNGEVKEIRKEEYGHNEVVEYDCNPNFIINGPKKIQCVDGEWTTLPTCVEQVKTCGYIPELEYGYVQPSVPPYQHGVSVEVNCRNEYAMIGNNMITCINGIWTELPMCVATHQLKRCKIAGVNIKTLLKLSGKEFNHNSRIRYRCSDIFRYRHSVCINGKWNPEVDCTEKREQFCPPPPQIPNAQNMTTTVNYQDGEKVAVLCKENYLLPEAKEIVCKDGRWQSLPRCVESTAYCGPPPSINNGDTTSFPLSVYPPGSTVTYRCQSFYKLQGSVTVTCRNKQWSEPPRCLDPCVVSEENMNKNNIQLKWRNDGKLYAKTGDAVEFQCKFPHKAMISSPPFRAICQEGKFEYPICE
